Data as given in paper PMC11357854, “Molecular insights into the regulatory landscape of PKC-related kinase-2 (PRK2/PKN2) using targeted small compounds” (The Journal of Biological Chemistry, 2024).
Where a chain is given by its changes, count along the chain named. Numbers in names are those of the source. No end group written: not given here. *: point of attachment. Biotin = O=C1N[C@H]2[C@H](CS[C@H]2CCCCC(=O)*)N1

T1: His-PDK1_(50-359) [PRK2-pocket] (UniProt O15530 50-359, K76Q | I119V | V127L | T128M | R131K | T148C | L155V)
T1 construct: also called PDK1 [PRK2-pocket]; His-PDK1 [PIF-pocket PRK2]; source: Sf9 (Bac-to-Bac), purified (nickel-nitrilotriacetic acid, gel filtration)
T1 sequence (looked up): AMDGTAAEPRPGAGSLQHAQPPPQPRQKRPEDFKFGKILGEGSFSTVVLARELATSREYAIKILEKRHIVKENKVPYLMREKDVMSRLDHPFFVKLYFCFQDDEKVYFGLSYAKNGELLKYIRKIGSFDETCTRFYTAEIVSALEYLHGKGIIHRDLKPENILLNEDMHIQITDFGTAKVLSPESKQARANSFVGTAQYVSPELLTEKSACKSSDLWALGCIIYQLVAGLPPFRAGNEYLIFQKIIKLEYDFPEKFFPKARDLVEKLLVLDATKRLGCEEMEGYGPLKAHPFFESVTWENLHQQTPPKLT

B1: His-PDK1_(1-556) (enzyme, UniProt O15530 1-556, looked up)
chain: MARTTSQLYDAVPIQSSVVLCSCPSPSMVRTQTESSTPPGIPGGSRQGPAMDGTAAEPRPGAGSLQHAQPPPQPRKKRPEDFKFGKILGEGSFSTVVLARELATSREYAIKILEKRHIIKENKVPYVTRERDVMSRLDHPFFVKLYFTFQDDEKLYFGLSYAKNGELLKYIRKIGSFDETCTRFYTAEIVSALEYLHGKGIIHRDLKPENILLNEDMHIQITDFGTAKVLSPESKQARANSFVGTAQYVSPELLTEKSACKSSDLWALGCIIYQLVAGLPPFRAGNEYLIFQKIIKLEYDFPEKFFPKARDLVEKLLVLDATKRLGCEEMEGYGPLKAHPFFESVTWENLHQQTPPKLTAYLPAMSEDDEDCYGNYDNLLSQFGCMQVSSSSSSHSLSASDTGLPQRSGSNIEQYIHDLDSNSFELDLQFSEDEKRLLLEKQAGGNPWHQFVENNLILKMGPVDKRKGLFARRRQLLLTEGPHLYYVDPVNKVLKGEIPWSQELRPEAKNFKTFFVHTPNRTYYLMDPSGNAHKWCRKIQEVWRQRYQSHPDAAVQ
notes: also called full-length PDK1; His-PDK1 FL; source: Sf9 (Bac-to-Bac), purified (nickel-nitrilotriacetic acid, gel filtration)
B2: His-PDK1_(50-359) (domain or fragment, UniProt O15530 50-359, looked up)
chain: T1 sequence (looked up) with Q27K, V70I, L78V, M79T, K82R, C99T, V106L
notes: also called catalytic domain of PDK1; source: Sf9 (Bac-to-Bac), purified (nickel-nitrilotriacetic acid, gel filtration)
B3: GST-PRK2_(643-984) WT (domain or fragment)
chain: not shown
modifications: phosphorylated at the activation loop (Thr816 in PRK2)
notes: PKC-related kinase 2 (PRK2/PKN2), catalytic domain with the C-terminal PIF/HM region, lacking the N-terminal 642 residues; also called isolated catalytic domain of PRK2; GST-PRK2 CD WT; source: HEK293T, transient transfection (pEBG2T-derived plasmid), purified
B4: GST-PRK2_(643-984) [T958A] (domain or fragment)
chain: not shown
modifications: phosphorylated at the activation loop (Thr816 in PRK2)
notes: source: HEK293T, transient transfection (pEBG2T-derived plasmid), purified
B5: PIFtide (peptide)
peptide: REPRILSEEEQEMFRDFDYIADWC
notes: also called polypeptide PIF; HM polypeptide derived from the C terminus of PRK2; source: synthetic peptide (JPT Peptide Technologies)
B6: biotin-PIFtide (Cys → Ser) (peptide)
peptide: Biotin-REPRILSEEEQEMFRDFDYIADWS
notes: PIFtide, C-terminal region of PRK2, with the last Cys replaced by Ser; source: synthetic peptide (Pepscan)
B7: biotin-PKLtide (peptide)
peptide: Biotin-PKLQRQKKIFSKQQG
notes: polypeptide comprising the pseudosubstrate PKL region of PRK2; source: synthetic peptide (JPT Peptide Technologies)

Legend:
Details in all cases: both partners purified
GST-PRK2_(1-984) WT = target: T2, GST-PRK2_(1-984) WT (UniProt Q16513 1-984, phosphorylated at the activation loop (Thr816 in PRK2)); assay: AlphaScreen or HTRF; His-PDK1 fixed at 20 nM against varied GST-PRK2 constructs; nickel chelate acceptor beads and glutathione donor beads; 50 mM Tris-HCl pH 7.4 (or 20 mM Hepes pH 7.5), 100 mM NaCl, 1 to 2 mM DTT, 0.01% Tween 20, 0.1% BSA; 90 min at room temperature
T2 construct: also called full-length PRK2; PKN2; source: HEK293T, transient transfection (pEBG2T-derived plasmid), purified

GST-PRK2_(1-984) [T958A] = target: T3, GST-PRK2_(1-984) [T958A] (UniProt Q16513 1-984, T958A, phosphorylated at the activation loop (Thr816 in PRK2)); assay: AlphaScreen or HTRF; competitive displacement of His-PDK1 / GST-PRK2 [T958A] complexes by varied PIFtide; 30 to 40 nM PDK1 versus 5 to 10 nM PRK2; nickel chelate acceptor beads and glutathione donor beads
T3 construct: also called full-length PRK2 T958A; source: HEK293T, transient transfection (pEBG2T-derived plasmid), purified

[1] = target: B4; assay: AlphaScreen or HTRF; His-PDK1 and GST-PRK2 at fixed concentrations (30 to 50 nM PDK1, 5 to 50 nM PRK2) with varied small compounds (PS210, GSK2334470, UCN-01, Y-27632); nickel chelate acceptor beads and glutathione donor beads
GST-PRK2_(643-984) WT [2] = target: B3; assay: as above
His-PDK1_(1-556) [3] = target: B1; assay: AlphaScreen or HTRF; His-PDK1 fixed at 20 nM against varied GST-PRK2 constructs; nickel chelate acceptor beads and glutathione donor beads; 50 mM Tris-HCl pH 7.4 (or 20 mM Hepes pH 7.5), 100 mM NaCl, 1 to 2 mM DTT, 0.01% Tween 20, 0.1% BSA; 90 min at room temperature
His-PDK1_(1-556) [4] = target: B1; assay: AlphaScreen or HTRF; competitive displacement of His-PDK1 / GST-PRK2 [T958A] complexes by varied PIFtide; 30 to 40 nM PDK1 versus 5 to 10 nM PRK2; nickel chelate acceptor beads and glutathione donor beads
His-PDK1_(50-359) [5] = target: B2; assay: as above
[6] = target: T1, His-PDK1_(50-359) [PRK2-pocket]; assay: AlphaScreen or HTRF; His-tagged PDK1 construct (30 nM) and biotin-PIFtide (Cys → Ser; 10 or 30 nM), cross-titration and displacement by small compounds; nickel chelate and streptavidin-coated beads
His-PDK1_(50-359) [7] = target: B2; assay: as above
GST-PRK2_(643-984) WT [8] = target: B3; assay: AlphaScreen or HTRF; GST-PRK2_(643-984) (1.5 nM) and biotin-PKLtide (75 nM) with varied compounds or 5% DMSO; anti-GST-coated acceptor beads and streptavidin-coated donor beads

B1: binds (GST-PRK2_(1-984) WT); binds (GST-PRK2_(1-984) [T958A]).

B2: binds (GST-PRK2_(1-984) WT); binds (GST-PRK2_(1-984) [T958A]); binds [1]. B2: binds (GST-PRK2_(643-984) WT [2]).

B3: binds (His-PDK1_(1-556) [3]).

B4: binds (His-PDK1_(1-556) [4]).

B5: binds (His-PDK1_(1-556) [4]); binds (His-PDK1_(50-359) [5]).

B6: binds [6]; binds (His-PDK1_(50-359) [7]).

B7: binds (GST-PRK2_(643-984) WT [8]).
